{"source": "patent US11229713B2", "about": "“Methods and compositions for 18F-radiolabeling of biologics” (BRISTOL-MYERS SQUIBB COMPANY, priority 2014, dated 2022)", "molecules": {"B1": {"name": "^18F-radiolabeled E01-4PEG-DBCO: E01 anti-PD-L1 Adnectin (SEQ ID NO: 1) linked via maleimide-PEG4-DBCO to [18F]-FPPEGA by click reaction (conjugate)", "chain": "GVSDVPRDLEVVAATPTSLLISWRAQLSPSFYYRITYGETGGNSPVQEFTVPNDVMTATISGLKPGVDYTITVYAVTTHGVYFYSPISINYRTPC", "modifications": "maleimide-PEG4-DBCO, 18F-FPPEGA label; Synthetic FBS protein, E01 Adnectin containing the C-terminal amino acids PC"}, "B2": {"name": "E01 Adnectin: FBS protein, anti-PD-L1 Adnectin, SEQ ID NO: 1, cold (unlabeled) (protein)", "chain": "B1 chain", "modifications": "Synthetic FBS protein, E01 Adnectin containing the C-terminal amino acids PC"}, "B3": {"name": "^18F-radiolabeled A02: ^18F-radiolabeled PD-L1 Adnectin A02 (SEQ ID NO: 2) produced as described in Example 9 (conjugate)", "chain": "EVVAATPTSLLISWSYDGPIDRYYRITYGETGGNSPVQEFTVPPDQKTATISGLKPGVDYTITVYAVRLEEAHYNREFPISINYRTPC", "modifications": "PEG4-DBCO linker, 18F-FPPEGA label; Synthetic 18F-radiolabeled PD-L1 Adnectin, A02"}}, "key": {"[1]": {"experiment": "Stability of reconstituted [18F]-FPPEGA in 1×PBS buffer", "format": "physicochemical", "conditions": "100% 1×PBS buffer, 37° C.", "experimental": "An aqueous [^18F]-Fluoride solution (2.0 ml, 33.3 GBq/900 mCi) was purchased from P.E.T. Net® Pharmaceuticals in West Point Pa. and directly transferred to a Sep-Pak light QMA [The Sep-Pak light QMA cartridge was pre-conditioned sequentially with 5 ml of 0.5 M potassium bicarbonate, 5 ml of deionized water, and 5 ml of MeCN before use.] Upon completion of this transfer, the aqueous [^18F] fluoride was released from the QMA Sep-Pak by the sequential addition of potassium carbonate (15 mg/ml; 0.1 ml) followed by a mixture of potassium carbonate (30 mg/ml, 0.1 ml), 4,7,13,16,21,24-hexaoxa-1,10-diazabicyclo[8.8.8]hexacosane (15 mg, 0.04 mmol) and 1.2 ml of MeCN. The solvent was evaporated under a gentle stream of nitrogen at 90° C. and vacuum. Azeotropic drying was repeated twice with 1 ml portions of acetonitrile to generate the anhydrous K.2.2.2/K[^18F]F complex. […] The entire contents of the crude reaction mixture was then transferred, loaded and purified using reverse phase HPLC and the following conditions: HPLC Column: Luna C18 250×10 Solvent A: 0.1% TFA in DI water; solvent B: 0.1% TFA in acetonitrile at a flow rate of 4.6 ml/minute using isocratic method 32% B while the UV was monitored at 280 nm. […]"}, "PD-L1 [2]": {"tested_on": "PD-L1", "conditions": "cynomolgus monkeys", "experimental": "Cynomolgus male monkeys with a previously installed vascular access port (VAP) were anesthetized with 0.02 mg/kg atropine, 5 mg/kg Telazol and 0.01 mg/kg buprenorphine I.M. (all drawn into a single syringe). An i.v. catheter is then placed in the cephalic vessel for fluid administration during the imaging procedure to maintain hydration. […] Anesthesia was maintained with isoflurane and oxygen and I.V. fluids (LRS) were administered at a rate of 6 ml/kg/hr during the imaging procedure. As the axial field of view of the microPET® F220™ instrument is only 7.6 cm, images over 5 distinct bed positions were acquired to create a composite image of the animals from just above the heart through approximately the pelvis.\nFor each field of view, a 10 minute transmission image was first acquired using a ^57Co point source for the purpose of attenuation correction of the final PET images. […] Once images were acquired at each position (1 through 5), the imaging bed was moved back to bed position 1 and the process was repeated. Using this procedure, a total of 5 distinct images were acquired for each bed position over the duration of the imaging study.\nIndividual images were reconstructed using a filtered back projection (FBP) algorithm with attenuation correction using the collected transmission images and corrected for radioisotope decay."}, "PD-L1 [3]": {"target": "T1, PD-L1 (Homo sapiens, UniProt Q9NZQ7)", "T1 sequence (Q9NZQ7 19-290)": "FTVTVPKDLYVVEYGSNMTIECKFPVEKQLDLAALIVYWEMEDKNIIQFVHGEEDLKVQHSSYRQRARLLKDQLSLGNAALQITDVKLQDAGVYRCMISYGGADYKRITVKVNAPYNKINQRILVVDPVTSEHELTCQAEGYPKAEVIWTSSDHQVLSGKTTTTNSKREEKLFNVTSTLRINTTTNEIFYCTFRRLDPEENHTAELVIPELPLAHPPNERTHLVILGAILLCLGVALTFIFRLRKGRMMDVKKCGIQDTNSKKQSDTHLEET", "experiment": "In vitro differentiation of PD-L1-positive from PD-L1-negative cells (cell-associated radioactivity, gamma counter)", "format": "binding", "parameters": "PD-L1-positive L2987 human lung carcinoma cells or PD-L1-negative HT-29 human colorectal adenocarcinoma cells; endogenous in cells; host or cells: L2987 human lung carcinoma cells (HT-29 as PD-L1-negative control)", "conditions": "1 hour on ice", "experimental": "Portions of this solution were supplemented with either cold (unlabeled) […] or cold (unlabeled) […] (control) to a final concentration of 450 nM. […] After the incubation period, cell samples were centrifuged at 200×g and the supernatant was discarded. Cell pellets were resuspended in 1 mL PBS+0.5% BSA and the wash procedure repeated for a total of 3 washes. Following the final wash, cells were again centrifuged at 200×g and the supernatant was discarded. The radioactivity of the remaining cell pellets was then measured by gamma counter."}, "PD-L1 [4]": {"target": "T1, PD-L1", "experiment": "microPET imaging of mice bearing bilateral PD-L1(+) L2987 and PD-L1(−) HT-29 xenografts", "format": "in vivo", "parameters": "introducing 1×10^6 PD-L1(+) L2987 human lung carcinoma cells; endogenous in cells; host or cells: L2987 human lung carcinoma xenografts grown subcutaneously in mice", "conditions": "co-injected with 3 mg/kg unlabeled A02 Adnectin, 1 hour 50 minutes - 2 h post injection", "from_the_text": "Mice bearing bilateral xenograft tumors were produced by introducing 1×10^6 PD-L1(+) L2987 human lung carcinoma cells and 1.5×10^6 PD-L1(−) HT-29 human colon carcinoma cells subcutaneously on opposite sides of the mouse. Once tumors reached approximately 300 mm^3 (approximately 2-3 weeks after cell implantation) animals were selected for imaging. For imaging, animals were placed under anesthesia with 2% isoflurane and tail vein catheters were installed. Mice were then placed into a custom animal holder with capacity for 4 animals, where they remained under anesthesia for the duration of the study. The animal holder was transferred to the microPET® F120™ scanner (Siemens Preclinical Solutions, Knoxville, Tenn.). […]\nFollowing the transmission scan, radiotracer solutions were administered via the previously installed tail vein catheters and a 2 hour emission image was acquired. […] Exact injected doses were calculated by taking direct measurement of the formulated dose and subtracting the radioactivity remaining in the syringe and the tail vein catheter.\nIn the final images, regions of interest (ROIs) were drawn around the tumor boundary using ASIPro software (Siemens Preclinical Solutions). Time-activity curves were calculated for each ROI to yield a quantitative view of radiotracer within the tumor volume over the course of the 2 hour emission image. […]"}, "PD-L1 [5]": {"target": "T1, PD-L1", "experiment": "Ex vivo tissue biodistribution by gamma counter in xenograft-bearing mice", "parameters": "introducing 1×10^6 PD-L1(+) L2987 human lung carcinoma cells; endogenous in cells; host or cells: L2987 human lung carcinoma xenografts grown subcutaneously in mice", "experimental": "For some studies, animals were sacrificed via cervical dislocation immediately following imaging. Necropsy was then performed on the animals, and individual tissues were collected (blood, heart, lung, liver, spleen, kidney, muscle, stomach, bone, L2987 tumor, and HT-29 tumor) into pre-weighed tubes. All tissues were then weighed again to determine the weight of each tissue. The radioactivity in each tissue was then directly measured ex vivo using a Perkin-Elmer Wizard3 gamma counter. For all tissues, measured values in counts per minute (CPM) were normalized to the injected radioactive dose for the individual animals and corrected for radioactive decay."}}}
{"molecule": "[N-]=[N+]=NCCOCCOCCOCCOc1cccnc1[18F]", "note": "[[^18F]-3-(2-(2-(2-(2-azidoethoxy)ethoxy)ethoxy)ethoxy)-2-fluoropyridine]", "values": [{"measurement": "stable in this media", "setting": "[1]", "value": "over 1 hour"}]}
{"molecule": "B1", "values": [{"measurement": "notable radiotracer accumulation (tissues)", "setting": "PD-L1 [2]; PET", "value": "mainly in the kidneys, spleen, and bladder"}, {"measurement": "background levels / background accumulation in PET images", "setting": "PD-L1 [2]; approx. 1.5 mCi (approx. 0.015 mg/kg) via VAP", "value": "very low"}, {"measurement": "cell associated radioactivity in PD-L1-positive L2987 cells relative to PD-L1-negative HT-29 cells", "setting": "PD-L1 [3]; 300 nCi/200 μL tracer", "value": 44.6, "unit": "×"}]}
{"molecule": "B2", "values": [{"measurement": "reduction in cell-associated ^18F-radiolabeled E01-4PEG-DBCO on co-incubation with cold adnectin", "setting": "PD-L1 [3]; 450 nM cold (unlabeled) adnectin", "value": 99.6, "unit": "%"}]}
{"molecule": "B3", "values": [{"measurement": "radiotracer uptake in PD-L1(+) L2987 xenografts relative to PD-L1(−) HT-29 xenografts, blocked", "setting": "PD-L1 [4]", "value": 1.04, "unit": "×"}, {"measurement": "tissue with higher uptake than the PD-L1(+) tumor", "setting": "PD-L1 [5]; ex vivo gamma counter", "value": "kidney"}, {"measurement": "uptake in PD-L1(+) L2987 xenografts compared to PD-L1(−) HT-29 xenografts, ex vivo", "setting": "PD-L1 [5]; necropsy immediately after imaging, gamma counter", "value": "clear differential uptake"}]}
